How the values were obtained:
[1] = target: human rod outer segment guanylate cyclase 1 (ROS-GC1), mutant P575L (human) (UniProt Q02846)
[2] = target: human rod outer segment guanylate cyclase 1 (ROS-GC1), wildtype (human) (UniProt Q02846)

Binder | EC50 of guanylate cyclase activation (cGMP produced) with 0–20 μM Ca2+-free, Mg2+-bound GCAP1, HEK cell membranes, 30 min [1] | EC50 of guanylate cyclase activation (cGMP produced) with 0–20 μM Ca2+-free, Mg2+-bound GCAP1, HEK cell membranes, 30 min [2] | EC50 of guanylate cyclase activation (cGMP produced) with 0–20 μM Ca2+-free, Mg2+-bound GCAP2, HEK cell membranes, 30 min [1] | EC50 of guanylate cyclase activation (cGMP produced) with 0–20 μM Ca2+-free, Mg2+-bound GCAP2, HEK cell membranes, 30 min [2]
bovine guanylate cyclase-activating protein 1 (GCAP1), D6S mutant, myristoylated (natural protein, myristoylated (degree of myristoylation typically higher than 90%)) MGNIMSGKSVEELSSTECHQWYKKFMTECPSGQLTLYEFRQFFGLKNLSPWASQYVEQMFETFDFNKDGYIDFMEYVAALSLVLKGKVEQKLRWYFKLYDVDGNGCIDRDELLTIIRAIRAINPCSDSTMTAEEFTDTVFSKIDVNGDGELSLEEFMEGVQKDQMLLDTLTRSLDLTRIVRRLQNGEQDEEGASGRETEAAEADG | 3.32 µM | 2.93 µM |  | 
bovine guanylate cyclase-activating protein 2 (GCAP2), myristoylated (natural protein, myristoylated (degree of myristoylation typically higher than 90%)) MGQQFSWEEAEENGAVGAADAAQLQEWYKKFLEECPSGTLFMHEFKRFFKVPDNEEATQYVEAMFRAFDTNGDNTIDFLEYVAALNLVLRGTLEHKLKWTFKIYDKDRNGCIDRQELLDIVESIYKLKKACSVEVEAEQQGKLLTPEEVVDRIFLLVDENGDGQLSLNEFVEGARRDKWVMKMLQMDLNPSSWISQQRRKSAMF |  |  | 7.44 µM | 8.34 µM

— PMC3935488
